Measurements from patent publication US20240383982A1 (Genmab, published 2024).

Assays:
[1] = molecular target: T1, pig (Sus scrofa) B7H4, full length, on HEK-293F cells (pig, UniProt Q7Z7D3 26-282 (human entry)); assay: flow cytometry, HEK-293F cells transfected with pig B7H4 [panel Pig B7H4]
T1 construct: Uniprot F1SAY4; also called pig B7H4
T1 chain: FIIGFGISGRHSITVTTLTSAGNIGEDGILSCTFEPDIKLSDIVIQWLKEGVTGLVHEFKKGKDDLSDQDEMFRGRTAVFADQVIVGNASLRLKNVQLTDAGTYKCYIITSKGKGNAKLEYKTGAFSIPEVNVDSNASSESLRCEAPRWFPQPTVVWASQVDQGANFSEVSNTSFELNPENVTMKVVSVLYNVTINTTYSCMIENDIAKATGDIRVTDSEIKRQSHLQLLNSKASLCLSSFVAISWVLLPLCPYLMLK
Method: (§1) Cells (3×10⁴ cells/well) were incubated in polystyrene 96-well round-bottom plates (Greiner bio-one, cat. no. 650180) with serial dilutions of antibodies (ranging from 0.000458 to 30 μg/mL in 4-fold dilution steps) in 100 μL PBS/0.1% BSA/0.02% azide (staining buffer) at 4° C. for 30 min. Experiments were performed in technical duplicate. After washing twice in staining buffer, cells were incubated in 50 μL secondary antibody at 4° C. for 30 min. As a secondary antibody, R-Phycoerythrin (PE)-conjugated goat-anti-human IgG F(ab′)₂ (1:500 in FACS buffer; Jackson ImmunoResearch Laboratories, Inc., West Grove, PA, cat. no. 109-116-098), was used. Cells were washed twice in staining buffer, re-suspended in 30 μL FACS buffer containing Topro-3 (1:10,000 dilution) and analyzed on an iQue Screener (Intellicyt Corporation, USA). Binding curves were analyzed using non-linear regression (sigmoidal dose-response with variable slope) using GraphPad Prism V7.02 software (GraphPad Software, San Diego, CA, USA).

[2] = molecular target: T2, human recombinant His tagged B7H4 protein (Sino Biological cat. no. 10738-H08H) (human, UniProt Q7Z7D3 29-258); assay: BLI (Octet HTX); antibody on anti-human IgG Fc capture sensor, human B7H4 ECD-His in solution; 2nd experiment
T2 construct: Bought protein; theoretical mass 26.8 kDa; also called human B7H4; human B7H4 extracellular domain
T2 sequence: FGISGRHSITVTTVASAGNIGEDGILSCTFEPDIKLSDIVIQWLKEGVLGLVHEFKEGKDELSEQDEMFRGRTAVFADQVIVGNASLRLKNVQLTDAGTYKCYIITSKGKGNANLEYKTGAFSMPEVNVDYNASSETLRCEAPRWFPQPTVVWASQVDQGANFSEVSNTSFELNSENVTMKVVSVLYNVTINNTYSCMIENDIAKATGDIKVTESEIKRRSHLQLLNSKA
Method: (§2) Target binding affinity of B7H4 antibodies was determined by label-free biolayer interferometry (BLI) on an Octet HTX instrument (FortéBio). Experiments were carried out while shaking at 1,000 RPM at 30° C. […] Anti-Human IgG Fc Capture (AHC) biosensors (FortéBio, cat. no. 18-5060) were pre-conditioned by exposure to 10 mM glycine (Sigma-Aldrich, cat. no. 15527) buffer pH 1.7 for 5 s, followed by neutralization in Sample Diluent (FortéBio, cat. no. 18-1048) for 5 s; both steps were repeated 2 times. Next, AHC sensors were loaded with antibody (1 μg/mL in Sample diluent) for 600 s. […] The theoretical molecular mass of human B7H4 and mouse B7H4 (as ECD-His tagged molecules) based on their amino acid sequences (26.8 kDa and 26.6 kDa respectively) were used for calculations. For each antibody a reference sensor was used, which was incubated with Sample Diluent instead of antigen. AHC sensors were regenerated by exposure to 10 mM glycine buffer pH 1.7 for 5 s, followed by neutralization in Sample Diluent for 5 s; both steps were repeated twice. Subsequently sensors were loaded again with antibody for the next cycle of kinetics measurements.
(§3) Data were acquired using Data Acquisition Software v9.0.0.49d (FortéBio) and analyzed with Data Analysis Software v9.0.0.12 (FortéBio). Data traces were corrected per antibody by subtraction of the reference sensor. The Y-axis was aligned to the last 10 s of the baseline, Interstep Correction alignment to dissociation and Savitzky-Golay filtering were applied. Data traces with a response<0.05 nm were excluded from analysis. The data was fitted with the 1:1 Global Full fit model using a window of interest for the association and dissociation times set at 300 s and 200 s respectively.

[3] = molecular target: T3, mouse B7H4 ECD-His (R&D Systems, cat. no. 2154-B7-050) (mouse, UniProt Q7TSP5 29-256); assay: BLI (Octet HTX); antibody on anti-human IgG Fc capture sensor, mouse B7H4 ECD-His in solution; 2nd experiment
T3 construct: Bought ECD-His protein (26.6 kDa); also called mouse B7H4 extracellular domain
T3 sequence: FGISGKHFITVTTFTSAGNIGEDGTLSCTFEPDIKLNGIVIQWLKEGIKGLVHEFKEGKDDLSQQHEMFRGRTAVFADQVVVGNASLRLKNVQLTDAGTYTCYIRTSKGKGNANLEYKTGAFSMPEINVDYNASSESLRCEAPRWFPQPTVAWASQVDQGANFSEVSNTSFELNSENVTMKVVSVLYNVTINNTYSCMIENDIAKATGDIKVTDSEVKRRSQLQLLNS
Method: as §2, §3

[4] = molecular target: T4, human B7H4, full length, on cells (human, UniProt Q7Z7D3 25-282); assay: flow cytometry on SK-BR3 tumor cells [panel SK-BR3 cells]
T4 construct: Uniprot Q7Z7D3; Used for transfected HEK cells and for the B7H4-expressing human tumor cell lines (endogenous B7H4); also called VTCN1
T4 sequence: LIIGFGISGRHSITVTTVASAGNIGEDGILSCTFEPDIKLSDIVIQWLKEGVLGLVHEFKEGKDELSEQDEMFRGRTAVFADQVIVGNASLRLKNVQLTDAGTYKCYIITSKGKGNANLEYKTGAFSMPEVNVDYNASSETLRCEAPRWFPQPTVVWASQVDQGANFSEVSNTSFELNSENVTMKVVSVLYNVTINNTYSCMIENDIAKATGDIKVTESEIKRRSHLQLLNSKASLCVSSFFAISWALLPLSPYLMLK
Method: as §1
Binding was analyzed by flow cytometry as described above.

[5] = molecular target: T4, human B7H4, full length, on cells; assay: flow cytometry, HEK-293F cells transfected with human B7H4 [panel Human B7H4]
Method: as §1

B1: IgG1-B7H4-C5-FEAR (antibody, V domains shown)
VH: QLQLQESGPGLVKPSETLSLTCTVSGGSIKSGSYYWGWIRQPPGKGLEWIGNIYYSGSTYYNPSLRSRVTISVDTSKNQFSLKLSSVTAADTAVYYCAREGSYPNQFDPWGQGTLVTVSS
VL: EIVMTQSPATLSVSPGERATLSCRASQSVSSNLAWYQQKPGQAPRLLIYGASTRATGIPARFSGSGSGTEFTLTISSLQSEDFAVYYCQQYHSFPFTFGGGTKVEIKR
notes: Full length IgG1 FEAR, kappa; variable domains from US20190085080A1
For B1, the binding result [1] was “binds”, the Kd [2] was 9.9 nM and the koff [2] was 0.0025 s⁻¹. The kon [2] was 250000 M⁻¹ s⁻¹, the Kd [3] was 14 nM and the koff [3] was 0.0024 s⁻¹. The kon [3] was 170000 M⁻¹ s⁻¹.

B2: bsIgG1-huCD3-H101G-FEALxB7H4-C1-N52S-FEAR (bispecific antibody)
heavy 1: not shown
light 1: not shown
heavy 2: QVQLQQWGAGLLKPSETLSLTCAVYGGSFSGYYWSWIRQPPGKGLEWIGEISHSGSTNYNPSLKSRVTISIDTSKNQFSLKLTSVTAADTAVFYCARGLFNWNFDSWGQGTLVTVSSASTKGPSVFPLAPSSKSTSGGTAALGCLVKDYFPEPVTVSWNSGALTSGVHTFPAVLQSSGLYSLSSVVTVPSSSLGTQTYICNVNHKPSNTKVDKRVEPKSCDKTHTCPPCPAPEFEGGPSVFLFPPKPKDTLMISRTPEVTCVVVAVSHEDPEVKFNWYVDGVEVHNAKTKPREEQYNSTYRVVSVLTVLHQDWLNGKEYKCKVSNKALPAPIEKTISKAKGQPREPQVYTLPPSREEMTKNQVSLTCLVKGFYPSDIAVEWESNGQPENNYKTTPPVLDSDGSFFLYSRLTVDKSRWQQGNVFSCSVMHEALHNHYTQKSLSLSPGK
light 2: DIQMTQSPSSLSASVGDRVTITCRASQGIRNDLGWYQQKPGKAPKRLIYGASSLQSGVPSRFSGSGSGTEFTLTISSLQPEDFATYYCLQHNSYPRTFGQGTTVEIKRTVAAPSVFIFPPSDEQLKSGTASVVCLLNNFYPREAKVQWKVDNALQSGNSQESVTEQDSKDSTYSLSSTLTLSKADYEKHKVYACEVTHQGLSSPVTKSFNRGEC
notes: also called bslgG1-huCD3-H101G-FEALxB7H4-C1-N52S-FEAR; BslgG1-huCD3-H101G-FEALxB7H4-C1-N52S-FEAR
B2 was tested, and the “EC50 (read off the curve)” value [4] was about 1 µg/mL.

B3: IgG1-B7H4-C1-N52S-FEAR (antibody, V domains shown)
VH: QVQLQQWGAGLLKPSETLSLTCAVYGGSFSGYYWSWIRQPPGKGLEWIGEISHSGSTNYNPSLKSRVTISIDTSKNQFSLKLTSVTAADTAVFYCARGLFNWNFDSWGQGTLVTVSS
VL: DIQMTQSPSSLSASVGDRVTITCRASQGIRNDLGWYQQKPGKAPKRLIYGASSLQSGVPSRFSGSGSGTEFTLTISSLQPEDFATYYCLQHNSYPRTFGQGTTVEIKR
notes: Full length human IgG1 with L234F, L235E, D265A, K409R (FEAR) heavy chain constant region and kappa light chain; bivalent, monospecific; also called IgG1-B7H4-C1-052S-FEAR
In the case of B3, the “EC50 (read off the curve)” value [5] is reported as about 0.05 µg/mL.
